Laboratory results taken from US8580932B2, “Method of thermostabilization of a protein and/or stabilization towards organic solvents” (Masarykova Univerzita, priority 2011, dated 2013).
Residue numbers refer to the chain shown, from its start. Names may count otherwise.

Assays:
[1] = 12 different substrates; cited from earlier work
[2] = format: physicochemical, Sphingobium japonicum UT26; settings: for ΔTm: compared to the wild type LinB; for Tm: ellipticity at 222 nm, 20 to 80° C., 1° C./min, 50 mM potassium phosphate buffer (pH 7.5)
Method: Circular dichroism spectra were recorded at 20° C. using a Jasco J-810 spectrometer (Jasco, Tokyo, Japan) coupled with Peltier temperature controller. Data were collected from 185 to 260 nm, at 100 nm/min, 1 s response time and 2 nm bandwidth using a 0.1 cm quartz cuvette containing the enzyme variant in 50 mM potassium phosphate buffer (pH 7.5). Each spectrum shown is the average of ten individual scans and was corrected for absorbance caused by the buffer. CD data were expressed in terms of the mean residue ellipticity (ΘMRE) using the equation: […]
Thermal unfolding of LinB enzyme variants was followed by monitoring the ellipticity at 222 nm over the temperature range of 20 to 80° C., with a resolution 0.1° C., at a heating rate 1° C./min. Recorded thermal denaturation curves were roughly normalized to represent signal changes between approximately 1 and 0 and fitted to sigmoidal curves using software Origin 6.1 (OriginLab, Massachusetts, USA). The melting temperatures (Tm) were evaluated as a midpoint of the normalized thermal transition.

[3] = Kinetic half-life assay of DhaA variants in 40% (v/v) DMSO; format: biochemical, Rhodococcus rhodochrous NCIMB 13064; settings: 60 mM glycine buffer (pH 8.6), 37° C.
[4] = Steady-state kinetics of haloalkane dehalogenases by isothermal titration calorimetry; format: biochemical; settings: pH 8.6, 25° C.; for ar (relative activity): percentage of specific activity in glycine buffer
Method: Substrate to product conversion by the action of enzymes was carried out using VP-ITC isothermal titration microcalorimeter (MicroCal), by single injection method. The substrate 1-iodohexane was dissolved in 100 mM glycine buffer (pH 8.6) containing appropriate volume of organic solvent and equilibrated at 25° C. in the sample cell (1.4 ml). The reaction was initiated by injecting of 10 μl of 1 mg/ml enzyme solution dialyzed overnight against the same solution as used for dissolving of the substrate. The heat flow (μcal s^−1) was recorded as a function of time. The reaction rate was calculated according to the equation:
[formula] where V is the volume of the sample cell, [S] is substrate concentration and ΔH is the enthalpy of the conversion of substrate to product and was determined experimentally by titration of the substrate into the sample cell containing the enzyme. The evaluated rate of substrate depletion (−d[S]/dt), and corresponding substrate concentration were fitted by nonlinear regression to kinetic models by using Origin 6.1 software (OriginLab, Massachusetts, USA). Results

[5] = Haloalkane dehalogenase activity assay in the presence of organic solvents; format: biochemical; settings: 100 mM glycine buffer (pH 8.6), 37° C., 1-iodohexane (FIG. 12)
Method: Haloalkane dehalogenase activity was assayed at 37° C. by a previously described method (Iwasaki, I., Utsumi, S., and Ozawa, T. 1952: New colorimetric determination of chloride using mercuric thiocyanate and ferric ion. Bulletin of the Chemical Society of Japan 25: 226-226). The released halide ions were analysed spectrophotometrically at 460 nm after a reaction with mercuric thiocyanate and ferric ammonium sulphate. The reaction mixture was composed of 100 mM glycine buffer (pH 8.6), 2 μl of substrate 1-iodohexane and appropriate amount of organic solvent. Solvent concentration was increased until the enzyme activity dropped below fifty per cent. The reaction was initiated by the addition of enzyme in a final concentration of 0.15 μM. The reaction was monitored by withdrawing samples at periodical intervals from the reaction mixture. The samples were immediately mixed with 35% nitric acid to terminate the reaction. Dehalogenation activity was quantified as a rate of product formation in time. Each activity was measured in 3-5 independent replicates and expressed as mean values of relative activity, represented percentage of activity in pure buffer.

[6] = formamide 5% (v/v), 1-iodohexane

B1: L177P: LinB variant in the position 177 (protein, UniProt D4Z2G1 2-296, looked up, variant L177P)
Haloalkane dehalogenase: SLGAKPFGEKKFIEIKGRRMAYIDEGTGDPILFQHGNPTSSYLWRNIMPHCAGLGRLIACDLIGMGDSDKLDPSGPERYAYAEHRDYLDALWEALDLGDRVVLVVHDWGSALGFDWARRHRERVQGIAYMEAIAMPIEWADFPEQDRDLFQAFRSQAGEELVLQDNVFVEQVLPGPILRPLSEAEMAAYREPFLAAGEARRPTLSWPRQIPIAGTPADVVAIARDYAGWLSESPIPKLFINAEPGALTTGRMRDFCRTWPNQTEITVAGAHFIQEDSPDEIGAAIAAFVRRLRPA
activity with tested substrates [1]: did not show activity with any of tested substrates

B2: L177K: LinB variant in the position 177 (protein, UniProt D4Z2G1 2-296, looked up, variant L177K)
Haloalkane dehalogenase: B1 Haloalkane dehalogenase with P176K
thermal stability compared to the wild type enzyme [2]: improvement in thermal stability
ΔTm [2]: 3.0 °C
Tm [2]: 51.01 ± 0.54 °C

B3: L177Q: LinB variant in the position 177 (protein, UniProt D4Z2G1 2-296, looked up, variant L177Q)
Haloalkane dehalogenase: B1 Haloalkane dehalogenase with P176Q
ΔTm [2]: 0.0 °C
Tm [2]: 48.08 ± 0.17 °C

B4: L177H: LinB variant in the position 177 (protein, UniProt D4Z2G1 2-296, looked up, variant L177H)
Haloalkane dehalogenase: B1 Haloalkane dehalogenase with P176H
ΔTm [2]: 0.8 °C
Tm [2]: 48.85 ± 0.28 °C

B5: L177M: LinB variant in the position 177 (protein, UniProt D4Z2G1 2-296, looked up, variant L177M)
Haloalkane dehalogenase: B1 Haloalkane dehalogenase with P176M
ΔTm [2]: −0.3 °C
Tm [2]: 47.78 ± 0.17 °C

B6: DhaA: haloalkane dehalogenase DhaA from Rhodococcus rhodochrous NCIMB13064 (protein, UniProt P0A3G2 1-293, looked up)
Haloalkane dehalogenase: MSEIGTGFPFDPHYVEVLGERMHYVDVGPRDGTPVLFLHGNPTSSYLWRNIIPHVAPSHRCIAPDLIGMGKSDKPDLDYFFDDHVRYLDAFIEALGLEEVVLVIHDWGSALGFHWAKRNPERVKGIACMEFIRPIPTWDEWPEFARETFQAFRTADVGRELIIDQNAFIEGALPKCVVRPLTEVEMDHYREPFLKPVDREPLWRFPNELPIAGEPANIVALVEAYMNWLHQSPVPKLLFWGTPGVLIPPAEAARLAESLPNCKTVDIGPGLHYLQEDNPDLIGSEIARWLPAL
deactivation in the presence of DMSO [3]: proceeded rapidly
K0.5 (concentration of substrate at half maximal velocity) [4, 6]: 4.2 µM
Ksi (substrate inhibition constant) [4, 6]: 0.6 mM
nH (Hill coefficient) [4, 6]: 2.0
ar (relative activity) ([4]; formamide 5% (v/v)): 130%
ar (relative activity) ([4]; glycine buffer (reference)): 100%
K0.5 (concentration of substrate at half maximal velocity) ([4]; glycine buffer, 1-iodohexane): 8.5 µM
Ksi (substrate inhibition constant) ([4]; glycine buffer, 1-iodohexane): 1.1 mM
kcat ([4]; glycine buffer, 1-iodohexane): 0.9 s⁻¹
nH (Hill coefficient) ([4]; glycine buffer, 1-iodohexane): 2.0
Specific activity in glycine buffer [5]: 0.0355 μmol s^−1 mg^−1 of enzyme
